In publication PMC6326806:

Experiments:
Plk1 [1] = molecular target: Plk1 (UniProt P53350); assay: GFP-trap co-IP of Myc-Plk1; details: reference: GFP-B-Myb wild type; sites T476
Plk1 [2] = molecular target: Plk1 (UniProt P53350); assay: GST-Plk1 pull-down from cell lysate; details: reference: wild type; sites T476

Row | Substance | binding against the reference (Plk1 [1]) | binding against the reference (Plk1 [2])
1 | B-Myb (from UniProt P10244) GFP-B-Myb T476A | lost | –
2 | B-Myb (from UniProt P10244) T476A | – | lost
